US5792629A, “Isolated DNA encoding novel protease inhibitory polypeptide” (Mochida Pharmaceutical Co., Ltd., priority 1990, dated 1998)
Blank lines part the entries; values can stand above or below the molecule they belong to.

Experiments:
[1] = system: ORTHO Plasma Coagulation Control Level 1; assay: Measurement of activated partial thromboplastin time (aPTT); details: for effect on aPTT, anticoagulant activity: conclusion from Table 1; for aPTT (%): aPTT of distilled water control taken as 100%
Procedure: The COAGTEC (TE-600, ERMA OPTICAL WORKS LTD), a measurement instrument, was used and the following operation was conducted at 37° C. to measure the effect of polypeptide of the present invention on activated partial thromboplastin time (hereinafter abbreviated as aPTT).
First, purified samples obtained in Example 1 (5), Example 2 (5) and Example 3 (4) were dissolved in 100 μl of distilled water. Concentration of each solution was determined based on bovine trypsin-inhibiting activity using UTI as a standard. Each solution was then diluted to various concentration levels for activity measurement.
Afterward, 50 μl of the ORTHO Plasma Coagulation Control Level 1 (Ortho Diagnostic Systems Co., Ltd.) was put into glass tubes. 50 μl of the sample or 50 μl of distilled water as control was added. Furthermore, 100 μl of the Activated THROMBOFAX Reagent-Optimized (Ortho Diagnostic Systems Co., Ltd.) was added and then each glass tube was set in the apparatus. 100 μl of 0.02M CaCl2 was then added to each glass tube for the measurement, and aPTT for each test samples and the control was obtained.
The aPTT values of the samples are described in percentage when taking the aPTT value of control as 100%.

[2] = biological target: FXa (Homo sapiens, UniProt P00742); assay: Human FXa-inhibiting activity, substrate S-2222; format: biochemical; design: purchased American Diagnostica Inc; details: for human FXa-inhibiting activity: purified sample, various concentrations, remaining activity vs buffer control (FIG. 18A-C)
FXa, sequence (P00742 235-488 limits assumed): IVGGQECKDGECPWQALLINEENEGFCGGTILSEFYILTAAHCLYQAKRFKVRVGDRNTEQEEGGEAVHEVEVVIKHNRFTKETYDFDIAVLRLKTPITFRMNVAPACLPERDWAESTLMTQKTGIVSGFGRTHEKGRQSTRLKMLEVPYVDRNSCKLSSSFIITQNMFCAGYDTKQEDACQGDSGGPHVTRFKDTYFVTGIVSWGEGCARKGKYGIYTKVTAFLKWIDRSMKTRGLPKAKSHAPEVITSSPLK
FXa, sequence (P00742 41-179 partner limits assumed): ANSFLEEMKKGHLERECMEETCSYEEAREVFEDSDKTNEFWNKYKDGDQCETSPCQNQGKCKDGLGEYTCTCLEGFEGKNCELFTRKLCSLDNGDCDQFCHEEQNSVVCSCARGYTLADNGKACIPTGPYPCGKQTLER
Procedure: The purified sample obtained in Example 1-(5) was dissolved in 100 μl of distilled water. Concentration of this solution was determined based on its bovine trypsin-inhibiting activity using the aforementioned UTI as a standard. The solution was then diluted to various concentration levels with 0.1% BSA/150 mM NaCl/5 mM CaCl2 /50 mM Tris-HCl buffer (pH 8.3) for use in the activity measurement. The UTI was also diluted in the same manner. Using a synthetic compound S-2222 (Daiichi Pure Chemicals Co., Ltd.) as a substrate, human FXa-inhibiting activities of the diluted test samples and the positive control were measured in accordance with the method of Ohno et al. (Ohno,H. et al., Thromb. Res., vol.19, pp.579-588, 1980) as follows.
Human FXa (American Diagnostica Inc.) was dissolved in distilled water to a concentration of 10 PEU/ml and the solution was further diluted with 0.1% BSA/150 mM NaCl/5 mM CaCl2 /50 mM Tris-HCl buffer (pH 8.3) to prepare 0.1 PEU/ml of FXa solution. 4 mM solution of S-2222 was prepared by dissolving it in distilled water and the solution was further diluted with 0.1% BSA/150 mM NaCl/5 MM CaCl2 /50 mM Tris-HCl buffer (pH 8.3) to obtain 2 mM solution of S-2222.
Next, 25 μl of the test sample or positive control was mixed with 100 μl of 0.1% BSA/150 mM NaCl/5 mM CaCl2 /50 mM Tris-HCl buffer (pH 8.3) and 25 μl of the FXa solution. After incubation at 37° C. for 10 minutes, 100 μl of the S-2222 solution was added to the mixture to start the reaction. The reaction was carried out at 37° C. for 30 minutes and then stopped by adding 50 μl of 50% acetic acid solution to the reaction mixture. Thereafter, absorbance at 405 nm was measured using a spectrophotometer.
In this instance, in order to eliminate absorbance of various solutions in the reaction mixture, a blank solution was prepared by mixing 25 μl of the FXa solution with 50 μl of 50% acetic acid and then with 25 μl of each test sample or the positive control, 100 μl of 0.1% BSA/150 mM NaCl/5 mM CaCl2 /50 mM Tris-HCl buffer (pH 8.3) and with 100 μl of the S-2222 solution.
In this figure, human FXa remaining activity was expressed by percentage based on the absorbance of a control reaction mixture in which 25 μl of 0.1% BSA/150 mM NaCl/5 mM CaCl2 /50 mM Tris-HCl buffer (pH 8.3) was used instead of the test sample or the positive control.

[3] = biological target: T1, Human plasma plasmin (Homo sapiens, UniProt P00747); assay: Plasmin-inhibiting activity, substrate S-2251; format: biochemical; details: purified sample, various concentrations; remaining activity vs buffer control (FIG. 16A-C)
T1 construct: Human plasma plasmin (Sigma Chemical Co.) was dissolved in physiological saline; purchased Sigma Chemical Co; host or cells: human plasma
T1 sequence (P00747 97-810): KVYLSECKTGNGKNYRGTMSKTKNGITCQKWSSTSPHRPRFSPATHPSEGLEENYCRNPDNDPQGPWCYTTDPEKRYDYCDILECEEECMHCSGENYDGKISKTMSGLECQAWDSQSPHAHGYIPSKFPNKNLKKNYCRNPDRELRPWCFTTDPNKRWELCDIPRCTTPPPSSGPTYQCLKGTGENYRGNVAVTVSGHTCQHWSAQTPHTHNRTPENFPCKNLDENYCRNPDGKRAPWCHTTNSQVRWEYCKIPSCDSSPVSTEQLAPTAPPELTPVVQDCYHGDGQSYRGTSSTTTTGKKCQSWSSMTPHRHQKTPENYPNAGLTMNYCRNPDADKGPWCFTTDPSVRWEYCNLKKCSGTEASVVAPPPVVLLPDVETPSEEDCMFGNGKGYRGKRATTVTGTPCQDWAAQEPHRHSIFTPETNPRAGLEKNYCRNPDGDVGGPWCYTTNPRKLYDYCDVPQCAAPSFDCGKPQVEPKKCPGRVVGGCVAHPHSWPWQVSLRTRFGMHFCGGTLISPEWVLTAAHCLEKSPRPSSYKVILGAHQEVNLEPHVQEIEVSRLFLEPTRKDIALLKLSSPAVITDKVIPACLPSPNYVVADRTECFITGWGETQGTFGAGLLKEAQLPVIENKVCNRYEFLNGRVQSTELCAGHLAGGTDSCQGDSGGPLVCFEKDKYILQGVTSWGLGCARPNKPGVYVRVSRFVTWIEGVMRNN
Procedure: The purified sample obtained in Example 1-(5) was dissolved in 100 μl of distilled water. Concentration of this solution was determined based on its bovine trypsin-inhibiting activity using the aforementioned UTI as a standard. The solution was then diluted to various concentration levels with 0.11M NaCl/50 mM Tris-HCl buffer (pH 7.4) for use in the activity measurement. The UTI was also diluted in the same manner. Using a synthetic compound S-2251 (Daiichi Pure Chemicals Co., Ltd.) as a substrate, human plasmin-inhibiting activities of the diluted test samples and the positive control were measured in accordance with the method of Friberger et al. (Friberger,P. et al., Haemostasis, vol.7, pp.138-145, 1978).
Human plasma plasmin (Sigma Chemical Co.) was dissolved in physiological saline to a concentration of 1 U/ml and the solution was further diluted with 50% glycerol/2 mM HCl solution to prepare 0.1 U/ml of plasmin solution. 3.5 mM solution of S-2251 was prepared by dissolving it in distilled water.
Next, 50 μl of the test sample or positive control was mixed with 50 μl of the plasmin solution and 100 μl of 0.11M NaCl/50 mM Tris-HCl buffer (pH 7.4). After incubation at 37° C. for 10 minutes, 50 μl of the S-2251 solution was added to the mixture to start the reaction. The reaction was carried out at 37° C. for 2 minutes and then stopped by adding 25 μl of 50% acetic acid solution to the reaction mixture. Thereafter, absorbance at 405 nm was measured using a spectrophotometer.
In this instance, in order to eliminate absorbance of various solutions in the reaction mixture, a blank solution was prepared by mixing 50 μl of the plasmin solution with 25 μl of 50% acetic acid and then with 50 μl of each test sample or the positive control, 100 μl of 0.11M NaCl/50 mM Tris-HCl buffer (pH 7.4) and with 50 μl of the S-2251 solution.
In this figure, human plasmin remaining activity was expressed by percentage based on the absorbance of a control reaction mixture in which 50 μl of 0.11M NaCl/50 mM Tris-HCl buffer (pH 7.4) was used instead of the test sample or the positive control.

human FXa-inhibiting activity [2]: activity was found
human plasmin-inhibiting activity [3]: activity was found
Molecule: CC51: polypeptide defined by the amino acid sequence of formula 1, purified from culture supernatant of E. coli JE5505 (pM560) (CNLPIVRGPCRAFIQLWAFDAVKGKCVLFPYGGCQGNGNKFYSEKECREYC)
effect on aPTT, anticoagulant activity [1]: have an effect to extend aPTT and anticoagulant activity
aPTT (%) ([1]; final concentration 33 U/ml): 172%
aPTT (%) ([1]; final concentration 167 U/ml): 256%

FXa-inhibiting activity ([2]; experiments of the inventors, even at an extremely high concentration): no FXa-inhibiting activity was found
human FXa-inhibiting activity [2]: activity was not found
human plasmin-inhibiting activity [3]: activity was found
B1: UTI: urinary trypsin inhibitor purified from human urine (Mochida Pharmaceutical), used as positive control (protein)
chain: AVLPQEEEGSGGGQLVTEVTKKEDSCQLGYSAGPCMGMTSRYFYNGTSMACETFQYGGCMGNGNNFVTEKECLQTCRTVAACNLPIVRGPCRAFIQLWAFDAVKGKCVLFPYGGCQGNGNKFYSEKECREYCGVPGDGDEELLRFSN
modifications: glycoprotein (sugar moieties, as the filing says in general of UTI)

human FXa-inhibiting activity [2]: activity was found
human plasmin-inhibiting activity [3]: activity was found
B2: TN70: polypeptide defined by the amino acid sequence of formula 3, purified from culture supernatant of E. coli JE5505 (pM552) (protein)
chain: TVAACNLPIVRGPCRAFIQLWAFDAVKGKCVLFPYGGCQGNGNKFYSEKECREYCGVPGDGDEELLRFSN
effect on aPTT, anticoagulant activity [1]: have an effect to extend aPTT and anticoagulant activity
aPTT (%) ([1]; final concentration 33 U/ml): 155%
aPTT (%) ([1]; final concentration 167 U/ml): 230%

human FXa-inhibiting activity [2]: activity was found
human plasmin-inhibiting activity [3]: activity was found
B3: TL66: polypeptide defined by formula 8; known enzyme-digested fragment of urinary trypsin inhibitor, made in E. coli JE5505 (pM551) (protein)
chain: TVAACNLPIVRGPCRAFIQLWAFDAVKGKCVLFPYGGCQGNGNKFYSEKECREYCGVPGDGDEELL
effect on aPTT, anticoagulant activity [1]: have an effect to extend aPTT and anticoagulant activity
aPTT (%) ([1]; final concentration 33 U/ml): 157%
aPTT (%) ([1]; final concentration 167 U/ml): 239%
